Laboratory results taken from the nanobody polyreactivity screen of Harvey et al. (2022).

Assay: yeast display, Sf9 membrane polyspecificity reagent, FACS + sequencing; frameworks hold sequencing errors
How it was run: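 A nanobody's polyreactivity label depends on the gate it was sorted from. Yeast display cells were stained with 10% biotinylated, detergent-solubilized Sf9 membrane reagent for 1 hour at 4 °C, enriched on streptavidin microbeads and sorted by FACS. The low and high (top ~1%) gates were set on anti-HA fluorescence for expression and streptavidin fluorescence for reagent binding.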

| Sequence | polyreactivity (PSR sort gate) |
| --- | --- |
| QVQLVESGGGLVQAGGSLRLSCAASGRTFRGYAMGWSRQAHGKEREFVATISSRGGSTYYADSVKGSFTISRDNAKHTVYLQMNSLKPEDTAVYYCAAKRRAKTGYRYDYWGQGTQVTLSS | high polyreactivity |
| QVQLVESGGGLVQAGGSLRLSCAASGRTFRGYAMGWYRQAPGKERELVATISSRGGSTYYADSVKGRFTISRDNAKNTVYLQMNSLKPEDTAVYYCAARYIGYSSYKYDYWGQGTQVTVSS | high polyreactivity |
| QVQLVESGGGLVQAGGSLRLSCAASGRTFRGYVMGWYRQAPGKERELVAAISKSGGSTYYADSVKGRFTISRDNAKNTVYLQMNSLKPEDTAVYYCSKNYRYSVFYDGFDYWGQGTQVTVSS | low polyreactivity |
| QVQLVESGGGLVQAGGSLRLSCAASGRTFRINTMGWYRQAPGKERELVATITGSGGSTYYADSVKGRFTISRDNAKNTVYLQMNSLKPEDTAVYYCAVRWYDQVSRRGIGYYWGQGTQVTVSS | low polyreactivity |
| QVQLVESGGGLVQAGGSLRLSCAASGRTFRIYAMGWYRQAPGKERELVAAINSGGTTNYADSVKGRFTISRDNAKNTVYLQMISLKPEDTAVYYCAVRYSKTLSHFSYDYWGQGTQLTVSS | low polyreactivity |
| QVQLVESGGGLVQAGGSLRLSCAASGRTFRIYAMGWYRQAPGKERELVAAITKRGGITYYADSVKGRFTISRDNAKNTVYFQMNSLKPEDTAVYYCNKLPEPYDYDYWGQGTQVTVSS | high polyreactivity |
| QVQLVESGGGLVQAGGSLRLSCAASGRTFRIYAVGWYRQAPGKERELVATIDSGGSTNYADSVKGRFTISRDNAKNTVYLQMNSLKPVDTAVYYCNAEDKPWYYLAGQAEYDSWGQGTQVTVSS | low polyreactivity |
| QVQLVESGGGLVQAGGSLRLSCAASGRTFRIYSMGWYRQAPGKEREFVAGITRSDGSTYYADSVKGRFTISRDNAKNTVYLQMNSLKPEDTAVYYCNVEPYSHYRRTEDYWGQGTQVTVSS | high polyreactivity |
| QVQLVESGGGLVQAGGSLRLSCAASGRTFRKYAMGWYRQAPGKERELVAAISWSGGSTYYANSVKGRFTISRDNAKNTVYLPMNSLKPVDTAVYYCAAVPVHTGSLYWGFTTGYDYWGQGTQVTVSS | low polyreactivity |
| QVQLVESGGGLVQAGGSLRLSCAASGRTFRKYAMGWYRQAPGTERELVAAISWSGGSTYYANSVKGRFTISRDNAKNTVYLQMNSLKPEDTAVYYGAAVPVHNGSLYWGFTTGYDYWGQGTQVTVSS | low polyreactivity |
| QVQLVESGGGLVQAGGSLRLSCAASGRTFRLNAMGWYRQAPGKERELVAAITRGGRTNYADSVKGRFTISRDNAKNTVYLQMNSLKPEDTAVYYCAARYVERHTDYYYWGQGTQVTVSS | low polyreactivity |
| QVQLVESGGGLVQAGGSLRLSCAASGRTFRLYAMGWYRQAPGKERELVAAITENGGSTYYADSVKGRFTISRDNAKNTVYLQMTSLKPEDTAVYYCAAKRYSRYNYWGQCTQVTVSS | high polyreactivity |
| QVQLVESGGGLVQAGGSLRLSCAASGRTFRLYAMGWYRQAPGKERELVAAITRGGRTNYADSVKGRFTISRDNAKNTVYLQMNSLKPEDTAVYYCAARYVEGHPDYYYWGQGTQVTVSS | low polyreactivity |
| QVQLVESGGGLVQAGGSLRLSCAASGRTFRLYAMGWYRQAPGKERELVAAITRGGRTNYADSVKGRFTISRDNAKNTVYLQMNSLNPEDTAVYYCAARYVERHTDYYYWGQGTQVTVSS | low polyreactivity |
| QVQLVESGGGLVQAGGSLRLSCAASGRTFRLYAMGWYRQAPGKERELVASISRSVGSTYYADSVKGRFTISRDNAKNTVYLQMNSLKPEDTAVYYCAARSYIPGGWDGAYYYWGQGTQVTVSS | high polyreactivity |
| QVQLVESGGGLVQAGGSLRLSCAASGRTFRLYAMGWYRQATGTETELVAAISSRGGSTYYADSVKGRFTISRDNAKNTVYLQMNSLKPEDTAVYYCAKGLGSGQEIYGYDYWGQGTQVTVSS | high polyreactivity |
| QVQLVESGGGLVQAGGSLRLSCAASGRTFRNAMGWYRQAPGKEREFVATITWSGGSTYYADSVKGRFTISRDNAKNTVYLQMNSLKPEDTAVYYCAAEGRLWDWQRYDYWGQGTQVTVSS | low polyreactivity |
| QVQLVESGGGLVQAGGSLRLSCAASGRTFRNAMGWYRQEPVKEREFVATITWSGGSTYYADSVKGRFTISRDNAKNTVYLQMNSLKPEDTAVYYCAAEGRLWDWQRYDYWGQGTQVTVSS | low polyreactivity |
| QVQLVESGGGLVQAGGSLRLSCAASGRTFRPNAMGWYRQAPGKERELVASITRRGGTTYYADSVKGRFTISRDNAKNTVYLQMYSLKPEDSAVYYCNAPPGYSSTRNGYWGQGTQVTVSS | high polyreactivity |
| QVQLVESGGGLVQAGGSLRLSCAASGRTFRPYAMGWYRQAPGKEREFVARITWSGGTTYYADSVKGRFTISRDNAKNTVYLQMNSLKPEDTAVYYCAARVSRQTPLISYNYWGQGTQVTVSS | low polyreactivity |
| QVQLVESGGGLVQAGGSLRLSCAASGRTFRPYAMGWYRQAPGKERELVAAIDSSGTSTYYADSVKGRFTISRDNAKNTVYLQMNSLKPEDTAVYYCNTSLKRRRLRFNYWGQGTQVTVSS | low polyreactivity |
| QVQLVESGGGLVQAGGSLRLSCAASGRTFRPYAMGWYRQAPGKERELVAVITSGDSTSYADSVKGRFTISRDNAKNTVYLQMNSLKPEDTAVYYCAADSYSGYNYWGQGTQVTVSS | low polyreactivity |

| Sequence | polyreactivity (PSR sort gate) |
| --- | --- |
| QVQLVESGGGLVQAGGSLRLSCAASGRTFRQYAMGWYRQAPGKERELVAAISSSGGRTYYADSVKGRFTISRDNAKNTVYLQMNSLKPEDTAVYYCNAARYSYCFDSWGQGTQVTVSS | high polyreactivity |
| QVQLVESGGGLVQAGGSLRLSCAASGRTFRQYAMGWYRQAPGKERELVATISGGGGNTYYADSVKGRFTISRDNAKNTVYLQMNSLKPEDTAVYYCAARRRDRPVRGYDYWGQGTQVTVSS | high polyreactivity |
| QVQLVESGGGLVQAGGSLRLSCAASGRTFRRNAMAWYRKAPGKERELVAAISGGGSTNYADSVKGRFTISRDNAKNTVYLQMNSLKPEDTAVYYCNKRGTIWSGFWGQGTQVTVSS | high polyreactivity |
| QVQLVESGGGLVQAGGSLRLSCAASGRTFRRNAMGSYRQAPGKERELVATITGGGTNYADSVKGRFTISRDNAKNTVYLQMNSLKPEDTAVYYCAVGTRFYVPRRFDYWGQGTQVTVSS | high polyreactivity |
| QVQLVESGGGLVQAGGSLRLSCAASGRTFRRNAMGWYRQAPGKERELVAAIRWSSGSTYYADSVKRRFTISRDNAKNTVYLQMNSLKPEDTAVYYCAKRQWGGRESFDYWAQGTQVTVSS | low polyreactivity |
| QVQLVESGGGLVQAGGSLRLSCAASGRTFRRNAMGWYRQAPGKERELVAAITRSGGSTYYADSVKGRFTISRDNAKNTVYLQMNSLKPEDTAVYYCAAGTYVGLKTQYDYWGQGTQVTVSS | high polyreactivity |
| QVQLVESGGGLVQAGGSLRLSCAASGRTFRRNAMGWYRQAPGKERELVADISNGDSTKYADSVKGRFTISRDNAKNTVYLHMNRLKPVDTAVYYCNAQRYRVVVYNSHGWQTRNYWGQGTQVTVSS | low polyreactivity |
| QVQLVESGGGLVQAGGSLRLSCAASGRTFRRYAMGWSRQAPGKERELVATISSGGSTNYADSVKGRFTISRDNAKNTVYLQMNSLKPEDTAVYYCKARGRSTVTYGYWGQGTQVTVSS | high polyreactivity |
| QVQLVESGGGLVQAGGSLRLSCAASGRTFRRYAMGWYRQAPGKERELVAAISFGGRTYYADSVKGRFTISRDNAKNTVYLQMNSLKPEDTAVYYCAVRSYDQLIVPRDYWGQGTQVTVSS | high polyreactivity |
| QVQLVESGGGLVQAGGSLRLSCAASGRTFRRYAMGWYRQAPGKERELVAAISRNGGSTYYADSVKGRFTISRDNAKNTVYLQMNSLKPEDTAVYYCNAVTYGSYYYWGQGTQVTVSS | high polyreactivity |
| QVQLVESGGGLVQAGGSLRLSCAASGRTFRRYAMGWYRQAPGKERELVAGISRSGVSSYYADSVKGRFTISRDNAKNTVYLQMNSLKPEDTAVYYCATRYVPTLRSSGDYWGQGTQVTVSS | high polyreactivity |
| QVQLVESGGGLVQAGGSLRLSCAASGRTFRRYAMGWYRQAPGKERELVATITNAGSTYYADSVKGRFTISRDNAKNTVYLQMNSLKPEDTAVYYCAARVPYISDYWGQGTQVTVSS | low polyreactivity |
| QVQLVESGGGLVQAGGSLRLSCAASGRTFRRYAMGWYRQAPGKERELVATITNAGSTYYADSVKGRFTISSDNAKNTVYLQMNSLKPEDTSVYYCAARVPYKSDYWGQGTQVTVSS | low polyreactivity |
| QVQLVESGGGLVQAGGSLRLSCAASGRTFRRYAMGWYRQAPGKERELVATITSNGGSTYYADSVKGRFTISRDNAKNTVYLQMNSLKPEDTAVYYCARDLTYYRSRYDYWGQGTQVTVSS | high polyreactivity |
| QVQLVESGGGLVQAGGSLRLSCAASGRTFRRYTMGWYTQAPGKVRELVAAITTSGGSTYYADSVKGRFTISRDNAKHTVYLQMNSLKPEDTAVYYCAATRRYSGDFWGQGTQVTVSS | high polyreactivity |
| QVQLVESGGGLVQAGGSLRLSCAASGRTFRRYVMGGYRQAPGKERELVATITSGGRTNYADSVKGRFTISRDNAKNTVYLQMNSLKPEDTAVYYCNAVRIGLRYYYWGQGTQVTVSS | low polyreactivity |
| QVQLVESGGGLVQAGGSLRLSCAASGRTFRRYVMGWYRQAPGKERELVAAIRWTGGSTYYADSVKGRFTISRDIAKNTVYLQMNSLKPEDTAVYYWAASSYICYGYWGQGTQVTVSS | high polyreactivity |
| QVQLVESGGGLVQAGGSLRLSCAASGRTFRSNAMGWYRQAPGKERELVAAISKGGDRTYYADSVKGRFTISRDNAKNNVYLHMNSLKPEDTAVYYCAARYTPSRYYYWGQGTQVTVSS | high polyreactivity |
| QVQLVESGGGLVQAGGSLRLSCAASGRTFRSYAMGWYRQAPGKDRELVAAISYGGGRTFYADSVKGRFTISRDNEKNTVYLQMNSLKPEDTAVYYCNAAFPRSYRFDYWGQGTQLTVSS | high polyreactivity |
| QVQLVESGGGLVQAGGSLRLSCAASGRTFRSYAMGWYRQAPGKEREFVAAISRSGASTRYADSVKGRFTISRDNAKNTVYLQMNSLKPEDTAVYYCAAVWPDVRGYDYWGQGTQVTVSS | high polyreactivity |
| QVQLVESGGGLVQAGGSLRLSCAASGRTFRSYAMGWYRQAPGKERELVAAITSGGSTYYADSVKGRFTISRDNAKNTVYLQMNSLKPEDTAVYYCARGDHVGSAGYDYWGQGTQVTVSS | low polyreactivity |
